Values belong to the binder of their own block, whether it stands above or below them.
Legend:
rabbit TG2 = rabbit TG2 (rabbit); experiment: cell-based or functional assay
[1] = target: T1, human transglutaminase type 2 (TG2) (human, UniProt P21980 2-687); experiment: cell-based or functional assay
T1 sequence: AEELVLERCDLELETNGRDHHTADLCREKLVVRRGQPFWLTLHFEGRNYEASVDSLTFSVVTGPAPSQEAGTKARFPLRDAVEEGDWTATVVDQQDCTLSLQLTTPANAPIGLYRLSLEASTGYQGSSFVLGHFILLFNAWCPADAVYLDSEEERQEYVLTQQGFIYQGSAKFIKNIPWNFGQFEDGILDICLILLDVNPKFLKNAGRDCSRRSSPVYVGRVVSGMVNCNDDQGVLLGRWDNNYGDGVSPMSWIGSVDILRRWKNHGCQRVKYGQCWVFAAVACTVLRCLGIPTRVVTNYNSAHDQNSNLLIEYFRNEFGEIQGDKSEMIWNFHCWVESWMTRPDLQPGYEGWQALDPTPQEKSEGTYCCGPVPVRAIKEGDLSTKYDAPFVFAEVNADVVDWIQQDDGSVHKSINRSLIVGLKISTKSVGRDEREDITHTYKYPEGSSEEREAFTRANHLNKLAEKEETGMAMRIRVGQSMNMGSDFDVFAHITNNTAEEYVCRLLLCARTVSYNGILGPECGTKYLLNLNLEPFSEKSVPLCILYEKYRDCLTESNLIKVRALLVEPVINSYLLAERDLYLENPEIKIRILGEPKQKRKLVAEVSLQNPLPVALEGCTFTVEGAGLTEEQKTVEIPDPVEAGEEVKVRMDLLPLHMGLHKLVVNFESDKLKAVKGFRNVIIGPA

IC50 against rabbit TG2 (assay not given) (rabbit TG2): 103 nM
IC50 against human TG2 (assay not given) [1]: 0.25 nM
B1: Zampilimab (antibody, V domains shown)
VH: EVQLLESGGGLVQPGGSLRLSCAASGFTLSTHAMSWVRQAPGKGLEWVATISSGGRSTYYPDSVKGRFTISRDNSKNTLYLQMNSLRAEDTAVYFCARLISTYWGQGTLVTVSS
VL: DITMTQSPSSLSASVGDRVTITCKASQDINSYLTWFQQKPGKAPKILIYLVNRLVDGVPSRFSGSGSGQDYALTISSLQPEDFATYYCLQYDDFPYTFGQGTKVEIK

IC50 against rabbit TG2 (assay not given) (rabbit TG2): 8 nM
IC50 against human TG2 (assay not given) [1]: 0.3 nM
B2: rbBB7 (antibody, V domains shown)
VH: EVQLLESGGRLVTPGGSLTLTCAASGIIFSSSAMSWVRQAPGKGLEWVATISSGGRSTYYPDSVKGRFTVSRDSSKNTLYLQMNSLRAEDTAVYYCAKLISPYWGQGTLVTVSS
VL: AIKMTQTPSSVSAAVGGTVTISCKASQDINSYLTWFQQKPGQPPKTLIYLTNRLMDGVPSRFSGSGSGQEFLLTISGLECDDAATYYCLQYVDFPYTFGGGTKVVVK
